Measured values reported in patent US6342219.

Molecular target: VEGF:Flk-1 complex (VEGF associated with sFlk-1) (human; mouse) (UniProt P15692)
Test: capture ELISA; biotinylated sFlk-1 complexed with VEGF titrated onto antibody-coated wells; concentration giving 50% maximal binding; * extrapolated value

Chain of A4.6.1 (mouse anti-human VEGF monoclonal antibody from Genentech) (VH): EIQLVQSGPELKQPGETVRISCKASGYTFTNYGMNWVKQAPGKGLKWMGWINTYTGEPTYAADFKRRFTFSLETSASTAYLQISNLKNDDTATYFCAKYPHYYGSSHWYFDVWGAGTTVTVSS
Chain of A4.6.1 (mouse anti-human VEGF monoclonal antibody from Genentech) (VL): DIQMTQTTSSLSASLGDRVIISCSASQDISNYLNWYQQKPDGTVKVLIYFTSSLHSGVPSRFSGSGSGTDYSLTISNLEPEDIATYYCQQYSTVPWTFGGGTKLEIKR
Chain of VEGF:Flk-1 complex (VEGF associated with sFlk-1) (human; mouse) (P15692 other isoform, or with tags, fused parts or gaps limits assumed, chain 1 of 2): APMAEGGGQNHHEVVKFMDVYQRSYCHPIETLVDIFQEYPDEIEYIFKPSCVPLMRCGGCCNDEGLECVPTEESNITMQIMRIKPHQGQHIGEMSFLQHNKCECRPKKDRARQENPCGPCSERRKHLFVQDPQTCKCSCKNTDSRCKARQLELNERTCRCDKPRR
Chain of VEGF:Flk-1 complex (VEGF associated with sFlk-1) (human; mouse) (P35918 20-762 limits assumed, chain 2 of 2, further chain): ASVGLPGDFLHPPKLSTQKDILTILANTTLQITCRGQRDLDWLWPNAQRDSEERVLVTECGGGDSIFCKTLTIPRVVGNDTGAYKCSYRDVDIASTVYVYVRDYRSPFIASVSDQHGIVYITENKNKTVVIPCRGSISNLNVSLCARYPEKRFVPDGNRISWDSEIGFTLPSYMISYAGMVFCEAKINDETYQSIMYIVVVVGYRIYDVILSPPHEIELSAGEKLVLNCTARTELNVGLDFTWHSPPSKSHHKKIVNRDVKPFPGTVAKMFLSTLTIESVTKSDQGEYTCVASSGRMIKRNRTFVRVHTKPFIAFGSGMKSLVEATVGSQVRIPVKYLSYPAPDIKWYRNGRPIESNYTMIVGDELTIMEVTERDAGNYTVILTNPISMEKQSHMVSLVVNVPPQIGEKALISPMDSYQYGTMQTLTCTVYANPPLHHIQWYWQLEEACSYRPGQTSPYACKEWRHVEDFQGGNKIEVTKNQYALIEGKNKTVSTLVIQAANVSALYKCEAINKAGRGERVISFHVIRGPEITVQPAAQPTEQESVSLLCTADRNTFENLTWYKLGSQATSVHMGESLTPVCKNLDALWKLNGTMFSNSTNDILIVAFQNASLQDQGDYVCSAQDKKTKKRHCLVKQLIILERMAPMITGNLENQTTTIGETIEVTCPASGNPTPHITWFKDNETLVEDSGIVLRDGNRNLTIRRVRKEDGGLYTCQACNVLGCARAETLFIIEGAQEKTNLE

Which EC50 does the source give for “A4.6.1 (mouse anti-human VEGF monoclonal antibody from Genentech)” here?
The EC50 was 500 nM.
